B1: NORO-263 (antibody, V domains shown)
VH: QVQLVESGGGLVKPGGSLRLSCAASGFTLSDYYMSWIRQAPGKGLEWVAYISSSHTSTYYRDSVKGRFTISRDSAKKSLYLQMNSLRVEDTAIYYCARDWVGGRSAYSDHWGQGTLVTVSS
VL: SYELTQPPSVSVSPGQTARITCSGDALPRRPAFWYQQKSGQAPVLVMYDDSKRPSGIPERFSGSSSGTVATLTISGAQVEDEADYHCYSTDSSGKERVFGGGTKLTVL
B2: NORO-303 (antibody, V domains shown)
VH: QVQLVESGGGVVQPGRSLRLSCAASGFIFSSYAMHWVRQAPGKGLEWVAVMSYDGNNKYYADSVKGRFTISRDNSKNTLFLQMNSLRPEDTAVYYCARDCRVGWVFTYGMDVWGQGTLVTVSS
VL: QSALTQPPSASGSPGQSVTISCTGTSSDVGGYNYVSWYQQHPGKAPKLMMYEISKRPSGVPIRFSGSKSGNTASLTVSGLQAEDEADYYCSSYAGTYNCVVFGGGTKLTVL
B3: NORO-279A (antibody, V domains shown)
VH: QVQLVESGGGVVQPGRSLRLSCAASGFTFTKYGMHWVRQAPGKGLEWVAFIAYDGSVKYYGDSAKGRFAISRDNPKNTVYLQMNSLRAEDTAVYYCAKVEIHYYSNSLLGMDVWGQGTLVTVSS
VL: QSVLTQPPSASGTPGQRVTISCSGGNSNIGISYVYWYQHLPGTAPKLLISKNNLRPSGVPDRFSASKSGTSASLAISGLRSEDEAEYYCATLDINMTWVFGGGTKLTVL
B4: NORO-123 (antibody, V domains shown)
VH: QVQLVESGGGVVQPGRSLRLSCSTSGFTFSQYPMHWVRQAPGKGLEWVALISYDGMNKYYADSVRGRFTISRDNSENTQYLQMNSLRGDDTAVYYCARVTGDCTGNRCSYWAYYYYGLDVWGQGTLVTVSS
VL: QSALTQPPSASGSPGQSVTISCTGTSSDVGGYKYVSWYQQHPGKAPKLMIYEVTRRPSGVPDRFSGSKSGNTAFLTVSGLQAEDEADYYCGSYAGSTTSGYVFGTGTKVIVL
B5: NORO-250B (antibody, V domains shown)
VH: QVQLVESGGGLVKPGGSLTLSCAASGFTFSDYYMNWIRQAPGKRLEWVSYISGIMSSTNYADSVKGRFTISRDTAKKSVYLQMNSLRAEDTAVYYCARATSQGATSYYFDSWGQGTLVTVSS
VL: QSVLTQPPSVSGAPGQRVTISCTGSSSNIGADYDVHWYQQLPGAAPRLLIYADINRPSGVPDRFSGSKSGTSASLAITGLQAEDEADYYCQSYDRSVSGSAVFGGGTKVTVL
B6: NORO-313.1 (antibody, V domains shown)
VH: QVQLVESGGGLVKPGGSLRLSCAASGFTFSDFYMSWIRQAPGKGLEWVGYISSIAGATNYADSVKGRFTISRDSSKRSLYLQMNSLRVEDTAVYYCARMGRLELERRPHYYYPLDVWGQGTLVTVSS
VL: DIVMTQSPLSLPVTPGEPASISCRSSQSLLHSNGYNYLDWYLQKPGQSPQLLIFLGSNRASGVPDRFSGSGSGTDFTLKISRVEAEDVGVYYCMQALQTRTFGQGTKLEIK
B7: NORO-310A (antibody, V domains shown)
VH: EVQLVESGGGLVRPGESLRLSCVASGFSVSDNYMSWVRQAPGKGLQWVSVIYSGGTTFYTDSVKGRFTISRDKSKNTLFLQMNSLRAEDTAVYFCTRDPSQYYDSRGHYYQTFTPSFDSWGQGTLVTVSS
VL: DIQMTQSPSVMSASVGDRVTITCRASQDISDYLAWFQQKPGKVPKRLIYAASSLQNGVPSRFSGSGSGTEFTLTISSLQPEDFATYYCLQHDTYPLTFGGGTKVEIK
B8: NORO-273A (antibody, V domains shown)
VH: QVQLVQSGAEVKKPGASVKISCKASGYDFTSFPMHWVRLGPGQRLEWMGWISAANGNTKYSQKFQDRFTITRDTSASIVHMELSSLRSEDTAVYYCARGGYSSGLYRYSNYYYGMTVWGQGTLVTVSS
VL: DIVMTQTPLSLSVTPGQPASISCKSSESLLHNDRKTYLFWYLQKPGQPPQLLIFQVSNRFSGVPDRFSGSGSGTDFTLRISRVEAEDVGIYYCLQTTQLPLTFGGGTKVEIK
B9: NORO-256A (antibody, V domains shown)
VH: QVQLVESGGGVVQAGRSLRLSCAASGFTFRSYGMHWVRQAPGKGLEWVAIISYDGGSKYYADSVKGRFTISRDNSKNTLYLQMNSLRVEDTALYYCAKDFLRVYSYGWHSFDIWGLGTLVTVSS
VL: QSVLTQPPSVSAAPGQRVTISCSGSSSNIGTYYVSWYQHLPGTAPKLLIYDNDKRPSGIPDRFSASKSGTSATLDIAGLQTGDEADYYCGTWDLSLTAGWVFGGGTKLTVL
B10: NORO-202A.1 (antibody, V domains shown)
VH: QVQLVQSGAEVKKPGASVKVSCKASEYTFTGYYLQWVRQAPGHGLEWMGWINPSGGTKYSQKFQGRVTMTRDTSITTVYMELSRLRSDDTAVYYCARDLLRNWGDHDAFDVWGQGTMVTVSS
VL: QSVLTQPPSASETPGQGVTISCSGSSSNIGSNFVCWYQQVPGTAPKLLIYKNNQRPSGVPDRFSGSKSGTSASLAISGLRSEDEADYYCSAWDDSLSGPVFGGGTKLTVL
B11: NORO-315B (antibody, V domains shown)
VH: QVQLVESGGGLVKPGGSLRLSCVASGFTFSDYYMTWFRQTPGRGLEWLSYISAIGGYTEYADSVKSRFIISRDNGKKSLYLQMNSLRAEDSGVYYCAREDCHGTSCYSGDWGQGTLVTVSS
VL: QSVLTQPPSVSGAPGQRVTISCTGSSSNIGAGYDVHWYQQLPGTAPKLLIYHNTNRPSGVPDRFSGSKSGTSAYLTITGLQAEDEADYYCQSYDRSLSKSRVFSGGTKLTVL
B12: NORO-317 (antibody, V domains shown)
VH: QVQLVESGGGLVKPGGSLRLSCVASGFTFSDYYISWVRQAPGKGLEWVSYISAINSYTNYADSVRGRFTVSRDNAKKSVFLQMNSLRVDDTAVYYCARDVGGSVRYSSNSNKKSYNYFDPWGQGTLVTVSS
VL: SYELTQPPSVSVSPGQTATITCSGDVLSKEFAYWYQQKPGQAPVLVIYKDNERPSGIPERFSGSTSGTTVTLTISGVLAEDEAHYYCQSVDTRGTYKVFGGGTKLTVL
B13: NORO-251A (antibody, V domains shown)
VH: QVQLVESGGGVVQPGRSLRLSCAASGFTFRSYGIHWVRQAPGKGLEWVALISYDGSSKYYADSVKGRFTISRDNSKNTLYLQMNSLRSEDTAVYYCAKVRLTSYSIGWFSFDYWGQGTLVTVSS
VL: QSVLTQPPSVSAAPGQKVTISCSGSSSNIANYYVSWYQQLPGRAPKLLIYDNNKRPSGIPDRISGSKSGTSATLGITGLQTGDEADYYCGTWDTSLSAWVFGGGTKLTVL
B14: NORO-296A (antibody, V domains shown)
VH: QVQLVESGGGLVKPGGSLRLSCAASGFTFSEYYMSWVRQAPGKALEWVSYITSSFSSTSYADSVKGRFVISRDNAKNSLYLQMNSLRVEDTAVYYCARYGAEYGSRSFYFLDWGQGTLVTVSS
VL: QSVLTQPPSVSGAPEQRVTISCTGSSSNIGAGYDVHWYQVLPGIAPKLLIYDNNKRPSGVPDRFSGSKSGTSASLAITGLQAEDEADYYCQSYDSRLSSNVVFGGGTKLTVL
B15: NORO-278 (antibody, V domains shown)
VH: QVQLVESGGGVVQPGRSLRLSCAASGFTFSSYGMHWVRQAPGKGLEWVAVISYDGSNKYYADSVKGRFTISRDNSKNTLYLQMNSLRAEDTAVYYCAKVTIIAAADLLDYWGQGTLVTVSS
VL: QSVLTQPPSVSGAPGQRVTISCTGSSSNIGAGYDVHWYQQLPGTAPKLLIYGNSNRPSGVPDRFSGSKSGTSASLAITGLQAEDEADYYCQSYDSSLSGPVVFGGGTKLTVL
B16: NORO-312A (antibody, V domains shown)
VH: QVQLVESGGALVKPGESLRLSCAASGFTFSDSYMSWIRQAPGKGLEWVAYISGIMSSTNYADSVKGRFTISRDNGKNSVYLQMNNLRAEDTAVYYCARDAQYCSGGRCYLVFDYWGQGTLVTVSS
VL: QSVLTQPPSVSGAPGQRVTISCTGSSSNIGAGYEVHWYQQLPGAAPKLIIYGNNNRPSGVPDRFSGSKSGTSASLAITGLQADDEADYYCQSYDNRLRVFGGGTKLTVL
B17: NORO-327A (antibody, V domains shown)
VH: QVQLEVSGGGLVKPGGSLRLSCAASGFTFTDYYMSWIRQAPGKGLEWVAYISGIMSSTKYADSVKGRFTISRDNGKNSVYLQMNSLTAEDTAVYYCARERVEPPSAVTDFWGQGTLVTVSS
VL: QSVLTQSPSVSGAPGQRVTISCTGTSSNIGAGYDVHWYQQFPGTAPKLLISHNTNRPSGVPDRFSGSKSGTSASLAITGLQAEDEADYYCQSFDSSLRGSRVFGGGTKLTVL
notes: human hybridoma mAb; IgG, lambda
B18: NORO-232A.2 (antibody, V domains shown)
VH: QVQLKQWGAGLLKSSETLSLTCAFNGNSFGAFYWSWIRLSPGKGLEWIGEVNYLGGADYNPSLKSRVTMSADTSKRQFSLSLKSVTAADTGVYFCARGRPHDYSPGSYSRPRRYYGLDVWGQGTTVTVSS
VL: EIVLTQSPATLSLSPGDSATLSCRASQAVSTTYLAWYQQTRGQAPRLLIHGTYTRAIGIPDKFSGTGSGTDFTLTISGLAPEDFAVYYCQQYSSSPYTFGQGTKIEIT
notes: human hybridoma mAb; IgA, kappa; in both panels
B19: NORO-246A (antibody, V domains shown)
VH: EVHLVESGGGLVKPGGSLRLSCAASGFTFSRYGMHWVRQAPGKGLEWVSSIVIRSDYKYYADSVKGRFTISRDNAKNSLYLQMNSLRADDTAVYYCARDLVEPGITPVGCDYWGRGTLVTVSS
VL: SNELTQAPSVSVSPGQTARITCFGDALANQYSYWYQRKPGQAPVLVIYKDSERPSGIPQRFSASNSGTTVTLTITGVQAEDEADYFCQSADSTGIYKVFGGGTKLTVL
notes: as for B17

These binders were tested against GII.4 Sydney 2012 virus-like particles (VLPs), based on strain AFV08795.1 (human norovirus GII.4 Sydney 2012, UniProt P54635 1-538, The particle is a multimeric assembly of VP1 with a little VP2 inside; one VP1 chain is given.) (assay: indirect ELISA, VLP coated).
B1 was tested, and the EC50 was 0.6 µg/mL. In the case of B2, the EC50 is reported as 0.5 µg/mL. Work on B3 yielded an EC50 of 0.2 µg/mL. Work on B4 yielded an EC50 of 5.4 µg/mL. In the case of B5, the EC50 is reported as 0.2 µg/mL. B6 gave an EC50 of 0.1 µg/mL. B7 showed an EC50 of 6.2 µg/mL. Work on B8 yielded an EC50 of 0.2 µg/mL. Binder B9 has an EC50 of 0.9 µg/mL. With B10 the EC50 was 0.4 µg/mL. For B11, the EC50 was 0.7 µg/mL. With B12 the EC50 was 0.4 µg/mL. For B13, the EC50 was 0.9 µg/mL. With B14 the EC50 was 0.6 µg/mL. Binder B15 has an EC50 of 4 µg/mL. B16 was tested, and the EC50 was 0.4 µg/mL.

Biological target: T1, GII.4 Sydney 2012 virus-like particles (VLPs), based on strain AFV08795.1 (human norovirus GII.4 Sydney 2012, UniProt P54635 1-538, The particle is a multimeric assembly of VP1 with a little VP2 inside; one VP1 chain is given.)
T1 construct: VLP assembled from VP1 and VP2 in baculovirus/Sf9 cells; also called GII.4 VLPs
T1 chain: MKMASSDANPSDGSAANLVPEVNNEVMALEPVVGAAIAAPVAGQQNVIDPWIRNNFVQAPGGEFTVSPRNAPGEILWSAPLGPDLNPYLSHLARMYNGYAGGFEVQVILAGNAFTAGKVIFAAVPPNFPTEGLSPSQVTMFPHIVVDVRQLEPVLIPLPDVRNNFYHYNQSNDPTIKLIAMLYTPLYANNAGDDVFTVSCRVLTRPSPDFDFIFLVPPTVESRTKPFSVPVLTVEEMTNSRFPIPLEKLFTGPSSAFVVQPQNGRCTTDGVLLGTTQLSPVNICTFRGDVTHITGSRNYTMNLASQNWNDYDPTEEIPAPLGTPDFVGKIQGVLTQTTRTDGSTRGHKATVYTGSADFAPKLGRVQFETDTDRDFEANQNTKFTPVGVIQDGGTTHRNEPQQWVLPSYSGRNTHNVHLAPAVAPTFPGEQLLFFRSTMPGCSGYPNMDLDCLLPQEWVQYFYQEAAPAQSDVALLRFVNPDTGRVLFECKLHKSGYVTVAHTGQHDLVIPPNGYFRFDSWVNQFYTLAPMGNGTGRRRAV
Experiment: indirect ELISA, VLP coated
B17 was tested, and the EC50 was 0.6 µg/mL. Work on B18 yielded an EC50 of 0.3 µg/mL. B19 was tested, and the EC50 was 0.2 µg/mL.
